{"source": "patent US7494767", "key": {"[1]": {"target": "GAL4 activation domain-Tsg101 fusion protein (wild-type human Tsg101) (yeast; human) (UniProt Q99816)", "sequence (Q99816 whole entry, the tested form may be a part)": "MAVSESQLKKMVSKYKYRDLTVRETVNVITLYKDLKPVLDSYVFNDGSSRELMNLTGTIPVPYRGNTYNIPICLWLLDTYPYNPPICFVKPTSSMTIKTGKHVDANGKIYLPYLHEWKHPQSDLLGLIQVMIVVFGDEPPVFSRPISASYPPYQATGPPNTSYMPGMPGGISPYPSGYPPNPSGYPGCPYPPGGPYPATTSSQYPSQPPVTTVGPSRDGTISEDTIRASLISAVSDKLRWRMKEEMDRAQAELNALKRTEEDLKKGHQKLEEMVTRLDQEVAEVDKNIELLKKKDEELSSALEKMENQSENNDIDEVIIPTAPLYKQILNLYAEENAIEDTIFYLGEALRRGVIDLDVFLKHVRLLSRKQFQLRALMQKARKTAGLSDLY", "assay": "yeast 2-hybrid, β-galactosidase; p1-p6 variant with Tsg101"}, "[2]": {"target": "GAL4 DNA-binding domain-p1-p6 fusion protein (yeast; human immunodeficiency virus type 1 (HIV-1)) (UniProt P04386)", "assay": "yeast 2-hybrid, β-galactosidase; Tsg101 variant with p1-p6"}}}
{"substance": "GAL4 DNA-binding domain-p1-p6 with the (LXX)4 repeat motif deleted (from UniProt P04386 1-147; P03347 435-512)", "values": [{"measurement": "β-galactosidase activity, % of the wild-type level (% of wild-type)", "setting": "[1]", "result": 55}]}
{"substance": "GAL4 DNA-binding domain-p1-p6 with the first PTAPP motif deleted (from UniProt P04386 1-147; P03347 435-512)", "values": [{"measurement": "β-galactosidase activity, % of wild-type protein binding (% of wild-type)", "setting": "[1]", "result": 50}]}
{"substance": "GAL4 DNA-binding domain-p1-p6 with the first PTAPP motif deleted and Ala for Pro7 in the second motif (from UniProt P04386 1-147; P03347 435-512)", "values": [{"measurement": "β-galactosidase activity, % of wild-type (% of wild-type)", "setting": "[1]", "result": 25}]}
{"substance": "GAL4 DNA-binding domain-p1-p6 with the second PTAPP motif deleted (from UniProt P04386 1-147; P03347 435-512)", "values": [{"measurement": "β-galactosidase activity, % of wild-type protein binding (% of wild-type)", "setting": "[1]", "result": 25}]}
{"substance": "GAL4 activation domain-Tsg101 Y110W (from UniProt Q99816 1-390)", "values": [{"measurement": "p6 interaction, % of wild-type (% of wild-type)", "setting": "[2]", "result": 31}]}
{"substance": "GAL4 activation domain-Tsg101 Y113V (from UniProt Q99816 1-390)", "values": [{"measurement": "binding, % of wild-type (% of wild-type)", "setting": "[2]", "result": 33}]}
{"substance": "GAL4 activation domain-Tsg101 with Ala for Thr-Tyr-Asn (67-69) (from UniProt Q99816 1-390)", "values": [{"measurement": "binding, % of the wild-type level (% of wild-type)", "setting": "[2]", "result": 5}]}
